The term Km denotes the concentration of substrate that gives half-maximal velocity.

The test system of data set [1] is GloxA. As to the kind of experiment: Substrate range of partially purified recombinant GloxA. In kind it is biochemical, Arthrobacter sp. TBD. The note with it: for Removal of substrate, Specific Activity: partially purified recombinant GloxA; for Removal of substrate, Relative Activity: relative to glyphosate = 100. On the procedure: (§1) Crude enzyme extracts from E. coli cells were prepared as follows. Cells were harvested and the cell pellets resuspended in 1 mL lysis buffer (25 mM Tris-Cl pH 7.5 with 1 mgml^−1 lysosyme) and lysed by sonication on ice (Branson sonifier, 60% duty cycle, 30 seconds on, 30 seconds off for ten repeats). The soluble fraction was collected by centrifugation at 5000 g for 5 minutes and the protein content measured using Biorad protein dye-binding assay (BIORAD). Partially purified extracts were prepared by purification of the S-tagged or HIS-tagged GloxA protein from soluble CFE using S-protein agarose (Novagen) the Talon HIS-tag Purification System (BD Biosciences), according to manufacturer's instructions. Partially pure GloxA was eluted from the column using either 3M MgCl2 or 2.5 mM imidazole in the loading buffer. Enzyme reactions were prepared containing 500 μL crude enzyme extract or 250 μL partially purified enzyme extract (˜10 μg protein lysate) in 25 mM Tris-Cl pH7.5, 1 mM FAD, 0.1 mM MgCl2. After preincubation at 37° C. for 2 minutes, 1 mM glyphosate was added to the reaction, which was then incubated with shaking for a further 10-60 minutes. After the required reaction time, reactions were derivatized with tosyl chloride and analysed by HPLC as described above. All enzyme assays were performed in triplicate and repeated at least twice to confirm data. For determination of apparent kinetic parameters, substrate concentrations were varied over a suitable range, and the data fitted to a sum of exponential equations using Kaleidagraph (Synergy Software) or Hyper 1.1 (J. S. Easterby).

The conditions of data set [2]: wildtype GOX, U.S. Pat. No. 5,776,760; cited from earlier work.
For data set [3] the following is noted: herbicide glyphosate; Siehl et al. (2005), WO 92/00377; cited from earlier work.
A short description of data set [4]: Side-by-side assay of GloxA and synthetic GOX extracts, iminodiacetic acid. The class given is biochemical. Conditions: extracts assayed side-by-side, FIG. 4. As for the experimental part: (§2) Crude enzyme extracts from E. coli cells were prepared as follows. Cells were harvested and the cell pellets resuspended in 1 mL lysis buffer (25 mM Tris-Cl pH 7.5 with 1 mgml^−1 lysosyme) and lysed by sonication on ice (Branson sonifier, 60% duty cycle, 30 seconds on, 30 seconds off for ten repeats). The soluble fraction was collected by centrifugation at 5000 g for 5 minutes and the protein content measured using Biorad protein dye-binding assay (BIORAD). Partially purified extracts were prepared by purification of the S-tagged or HIS-tagged GloxA protein from soluble CFE using S-protein agarose (Novagen) the Talon HIS-tag Purification System (BD Biosciences), according to manufacturer's instructions. […] After the required reaction time, reactions were derivatized with tosyl chloride and analysed by HPLC as described above. […]
(§3) For the purposes of direct comparison between the enzymes, a synthetic construct was made encoding the GOX gene based on SEQ ID NO:17 from U.S. Pat. No. 5,776,760. […] Soluble protein expression of GOX was optimized under varying temperature and IPTG conditions, and GOX protein expression detected by Coomasie-stained SDS-PAGE analysis and GOX enzymatic activity assayed as described above for GloxA, with HPLC analysis of activity to detect the removal of glyphosate and production of AMPA according to analytical methods above.

Data set [5] is described as follows: Apparent kinetic parameters of GloxA, glufosinate as substrate. The class given is biochemical. The note with it: herbicide glufosinate. As for the experimental part: as §1, with “After preincubation at 37° C. for 2 minutes, 1 mM glyphosate was added to the reaction, which was then incubated with shaking for a further 10-60 minutes.” left out, “For determination of apparent kinetic parameters, substrate concentrations were varied over a suitable range, and the data fitted to a sum of exponential equations using Kaleidagraph (Synergy Software) or Hyper 1.1 (J. S. Easterby).” left out

A short description of data set [6]: Side-by-side assay of GloxA and synthetic GOX extracts, glyphosate. In kind it is biochemical. Conditions: extracts assayed side-by-side, FIG. 4. As for the experimental part:
as §2, §3

Data set [7] is described as follows: Glyphosate degradation by GloxA-like homologous proteins, soluble cell-free extracts. In kind it is biochemical. The note with it: soluble cell-free protein extracts.
From the text: Selected putative GloxA-like homologous proteins were then expressed and assayed for glyphosate degradative activity. The nucleotide coding sequences of selected putative homologues were commercially synthesised (Geneart, GmBH), cloned and expressed using the Champion pET200D/TOPO. Expression System (Invitrogen), according to manufacturer's instructions. Recombinant protein expression was verified and quantitated by Coomasie-stained SDS-PAGE analysis and spot-densitometry using AlphaImager 2200 visualization and documentation system (Alpha Innotech).
Enzymatic assays to assess glyphsate degradation were, performed using soluble cell-free protein extracts (partially purified protein) in a 1 ml volume containing 100 μg total cell-free protein (˜10 μg enzyme extract), 1 mM MgCl2, 1 mM glycine in 20 mM Tris-Cl pH 7.2. Negative controls included cell-free extracts from E. coli BL21 Star both containing no expression vector and containing pET200D/TOPO without an insert.
Data set [8] deals with A. thaliana var. Landsberg. As to the kind of experiment: Glyphosate tolerance of Arabidopsis plants expressing GloxA (Tolerance Score). The class given is in vivo, Arabidopsis thaliana. Conditions: five times the normal dose (12.5 kga.i.ha^−1), Day 8 post-application of herbicide. The text has this:
FIG. 5. […] To obtain the Tolerance Score, plants were visually assessed for leaf health, plant radius and flowering on Day 8 post-application of herbicide. Untreated controls in perfect health scored 7-8 under the same system.
T1 seedlings can be transplanted and cultivated for seed through two generations to eventually isolate the homozygous T3 seeds. T2 and T3 plants were then screened for increased resistance to glyphosate, essentially using the methods described by Jander et al. (2003), but with A. thaliana var. Landsberg, not Columbia, and using treatment doses ranging from 2.5-25 kg a.i. ha^−1. The scores given in FIG. 5 are for a dose of 5× the expected I100 dose (12.5 kga.i.ha^−1)

Data set [9] in a line: GloxA enzyme assay with crude or partially purified extracts, HPLC after tosyl chloride derivatization. In kind it is biochemical. The note with it: for Glyphosate Removal: partially purified GloxA.
Data set [10] is described as follows: Apparent kinetic parameters of GloxA, glyphosate as substrate. The note with it: herbicide glyphosate. The class given is biochemical. As for the experimental part: as §1, with “For determination of apparent kinetic parameters, substrate concentrations were varied over a suitable range, and the data fitted to a sum of exponential equations using Kaleidagraph (Synergy Software) or Hyper 1.1 (J. S. Easterby).” left out

Data set [11] can be described thus: Resting cell biocatalytic assay of cells expressing recombinant GloxA. The class given is cell-based, E. coli. As for the experimental part: (§4) Detection of glyphosate and AMPA by HPLC analysis was performed using a modified version of the method of Tomita et al. (1991) (Column: C18 4.6 uM, 5 Å column. Mobile Phase: 0.2MK2HPO4, 15% acetonitrile). Analytes were derivatized with tosyl chloride and detected at a wavelength of 240 nm. One ml of reaction supernatant was mixed with 0.5 mL 0.4MNaHPO4 pH 11.0, followed by addition of 200 μL tosyl chloride solution (10 mgmL^−1 p-toluene sulfonylchloride [Sigma] in acetonitrile). After incubation at 50° C. for 5 minutes, 20 μL of filtered reaction product was injected onto the HPLC for analysis.
The glyphosate-degrading protein was designated GloxA, and sub-cloning of gloxA into an expression vector and assaying for glyphosate-degrading activity confirmed cells expressing recombinant GloxA were able to degrade glyphosate, with resting cell biocatalytic assays having glyphosate-degrading activity of 300 μmol min^−1 mg wet cell mass^−1, and crude enzyme extracts having an activity of 841 μmolmin^−1mg total protein (Table 2). Of importance is that glycine was not detected as a product at this stage of the analysis of GloxA, and is presumed to have been rapidly metabolized by other enzymes contained within the E. coli resting cells and crude enzyme extract preparation.

The nature of data set [12]: GloxA enzyme assay with crude or partially purified extracts, HPLC after tosyl chloride derivatization. In kind it is biochemical. As for the experimental part:
as §4, §1

Read-outs that look alike come from different tables or passages of the source.

As for `O=C(O)CNCP(=O)(O)O` [glyphosate, N-(phosphonomethyl)glycine], in data set [1], the “Removal of substrate, Specific Activity” value is reported as 841 μmolmin^−1 mg^−1 and the “Removal of substrate, Relative Activity” value was found to be 100%.
In the same order, the values of `NCP(=O)(O)O` [AMPA, aminomethylphosphonic acid] are 602 μmolmin^−1 mg^−1 and 71%.
Regarding `O=C(O)CNCC(=O)O` [iminodiacetic acid], in data set [1], the “Removal of substrate, Specific Activity” value stood at 5013 μmolmin^−1 mg^−1 and the “Removal of substrate, Relative Activity” value is reported as 598%.

B1: GOX: Glyphosate oxidoreductase producing AMPA and glyoxylate from glyphosate, SEQ ID NO:3 (protein)
chain: MSENHKKVGIAGAGIVGVCTALMLQRRGFKVTLIDPNPPGEGASFGNAGCFNGSSVVPMSMPGNLTSVPKWLLDPMGRCQSGSAISNHHAWLIRFLLAGRPNKVKEQAKALRNLIKSTVPLIKSLAEEADASHLIRHEGHLTVYRGEADFAKDRGGWELRRLNGVRTQILSADALRDFDPNLSHAFTKGILIEENGHTINPQGLVTLLFRRFIANGGEFVSARVIGFETEGRALKGITTTNGVLAVDAAVVAAGAHSKSLANSLGDDIPLDTERGYHIVIANPEAAPRIPTTDASGKFIATPMEMGLRVAGTVEFAGLTAAPNWKRAHVLYTHARKLLPALAPASSEERYSKWMGFRPSIPDSLPVIGRATRTPDVIYAFGHGHLGMTGAPMTATLVSELLAGEKTSIDISPFAPNRFGIGKSKQTGPAS
modifications: Pseudomonas sp. LBAA
B1: the specific activity in [2] is 15 nmolmin^−mg^−1. Also, in data set [3], the Kcat was 0.667 s⁻¹ and the Michaelis-Menten constant (Km) is 25000 to 28000 µM.

B2: GloxA: 473 amino acid glyphosate-degrading putative oxidoreductase from Arthrobacter sp. TBD, SEQ ID NO:1 (protein)
chain: VKTTVFERNVPQTAVVSHALAGAAHRPYWIDHLQDSATRYPQLDGDAAADLVIVGGGYTGLWTALRAKERDPGRTVILLEGEQVAWAASGRNGGFCEASLTHGHENGKNRWPDELETLDRLGMENLDRMQEAVEKYAMDCEWERTGELNVAVEPHQVAWLQEDDTPGSVFLDQDAVRAEVNSPTYLAGRWHKDSVAMVHPYKLGLELARVATELGVVIYEGTRVRELNDHEHGVTVVTERGIVEAGHVVLGTNVFPSLLKRNQLMTVPVYDYALMTEPLTAEQLESIGWGKRQGIGDVANQFHYYRITKDHRILFGGYDALYFWGRRVDQKHEHQPATWEKIASHFFTTFPQLEGLKFTHKWAGPIDSSTQFCAFFGTARKGRVAYAAGFTGLGVGATAFAADVLLDLLAGLDTERTRLEMVRKRPLPFPPEPLASLGINLTRWSMDRADHNQGKRNIILKALDAVGLGFDS
modifications: Arthrobacter sp. TBD
For the molecule B2, in [4], the “specific activity towards iminodiacetic acid compared with GOX” value came to 0.9 times less. The results for the Kcat in [5] and in [10] were 158.9 s⁻¹ and 179.97 s⁻¹, respectively. Besides, the Km in data set [5] came to 1200 µM; in [10], 56 µM. Further, in data set [6], the “specific activity towards glyphosate compared with GOX” value was “almost two fold higher”. The “Partially Purified Activity [glyphosate degradation]” value in data set [7] worked out at 841 µmol/min/mg. The “tolerance to glyphosate (Tolerance Score)” value in [8] is reported as “confers tolerance”. For the same molecule, the “Specific Activity, Production of glycine” value in data set [9] (PPE + FAD − Mg^2+) is on record as 413 μmolmin^−1 mg^−1 protein; in data set [9] (PPE − FAD + Mg^2+), 562 μmolmin^−1 mg^−1 protein; in [12] (PPE + FAD + Mg^2+), 548 μmolmin^−1 mg^−1 protein. Moreover, the “Specific Activity, Removal of glyphosate” value in [9] (PPE + FAD − Mg^2+) is recorded as 838 μmolmin^−1 mg^−1 protein; in [9] (PPE − FAD + Mg^2+), 1450 μmolmin^−1 mg^−1 protein; in [12] (Crude enzyme extract, approximate value), 841 μmolmin^−1 mg^−1 protein; in data set [12] (partially purified enzyme extract, PPE + FAD + Mg^2+) it was 1590 μmolmin^−1 mg^−1 protein. Further, the “Glyphosate Removal” value in [9] (Co^2+) was 1076 µmol/min/mg; in data set [9] (No FAD), 520 µmol/min/mg; in data set [9] (No Metals (+EDTA)), 432 µmol/min/mg; in data set [9] (Zn^2+), 624 µmol/min/mg; in [12] (partially purified GloxA, Std (Mg^2+)), 856 µmol/min/mg. Besides, the “Catalytic Activity, Removal of glyphosate” value in data set [11] is on record as 300 μmolmin^−1 mg^−1 wet cell mass. Moreover, the “glycine as a product” value in data set [12] (E. coli resting cells and crude enzyme extract preparation) is listed as “not detected”. In addition, the “production of AMPA from glyphosate” value in [12] (crude extracts and partially purified GloxA) is on record as “no production”.

The values above are taken from patent US20100199363A1, “ENZYMES FOR DEGRADING HERBICIDES” (priority 2006, published 2010).
